Results reported in article PMC3592454.

Molecular target: RNA polymerase holoenzyme with sigma70 Q437A (Escherichia coli, UniProt P00579;P0A7Z4;P0A8V2;P0A8T7;P0A800 1-613;1-329;1-1342;1-1407;2-91, Q437A)
Test: fluorescence anisotropy

B1: PR (WT) (dsDNA)
DNA 1: GCGTGTTGACTATTTTACCTCTGGCGGTGATAATGGTTGCATGTACTAAGGAGGTTGTATGGAACAACGCA
DNA 2: TGCGTTGTTCCATACAACCTCCTTAGTACATGCAACCATTATCACCGCCAGAGGTAAAATAGTCAACACGC
modifications: 5'-C6-amino linker
  Kd: 14.9 nM

B2: P1 galP1+P2-P3+ (dsDNA)
DNA 1: TTTTCGCATCTTTTCGTTGCTATGGTTATTTCATACCATAAGCCTAATGGAGCGAATTATGAG
DNA 2: CTCATAATTCGCTCCATTAGGCTTATGGTATGAAATAACCATAGCAACGAAAAGATGCGAAAA
modifications: 5'-C6-amino linker
  Kd: 0.76 ± 0.1 nM
